The values below come from patent US20070286859A1 (published 2007).

Usually IC50 stands for the concentration needed to halve the response being measured. As a reminder, the Kd is the free concentration of one partner at which half of the binding sites on the other are occupied at equilibrium, for simple one-to-one binding. A lower Kd goes with a tighter complex.

Changes are numbered by the printed parent chain. Names and notes keep the numbering of the source.

B1: E272R alemtuzumab (antibody)
chain 1: not shown
chain 2: not shown
B2: V284E alemtuzumab (antibody)
chain 1: not shown
chain 2: not shown
B3: S304T alemtuzumab (antibody)
chain 1: not shown
chain 2: not shown
B4: T260H alemtuzumab (antibody)
chain 1: not shown
chain 2: not shown
B5: E283H alemtuzumab (antibody)
chain 1: not shown
chain 2: not shown
B6: S239D alemtuzumab (antibody)
chain 1: not shown
chain 2: not shown
B7: N297D/A330Y/I332E alemtuzumab (antibody)
chain 1: QVQLQESGPGLVRPSQTLSLTCTVSGFTFTDFYMNWVRQPPGRGLEWIGFIRDKAKGYTTEYNPSVKGRVTMLVDTSKNQFSLRLSSVTAADTAVYYCAREGHTAAPFDYWGQGSLVTVSSASTKGPSVFPLAPSSKSTSGGTAALGCLVKDYFPEPVTVSWNSGALTSGVHTFPAVLQSSGLYSLSSVVTVPSSSLGTQTYICNVNHKPSNTKVDKKVEPKSCDKTHTCPPCPAPELLGGPSVFLFPPKPKDTLMISRTPEVTCVVVDVSHEDPEVKFNWYVDGVEVHNAKTKPREEQYDSTYRVVSVLTVLHQDWLNGKEYKCKVSNKALPYPEEKTISKAKGQPREPQVYTLPPSRDELTKNQVSLTCLVKGFYPSDIAVEWESNGQPENNYKTTPPVLDSDGSFFLYSKLTVDKSRWQQGNVFSCSVMHEALHNHYTQKSLSLSPGK
chain 2: not shown
B8: S239D/N297D/I332E alemtuzumab (antibody)
chain 1: B7 chain 1 with S243D, Y334A
chain 2: not shown
B9: V264I/I332E alemtuzumab (antibody)
chain 1: not shown
chain 2: not shown
B10: S298A alemtuzumab (antibody)
chain 1: not shown
chain 2: not shown
B11: I332E alemtuzumab (antibody)
chain 1: not shown
chain 2: not shown
B12: WT alemtuzumab (antibody)
chain 1: not shown
chain 2: not shown
B13: S298A/E333A/K334A alemtuzumab (antibody)
chain 1: B7 chain 1 with D301N, S302A, Y334A, E336I, E337A, K338A
chain 2: not shown
B14: V264I alemtuzumab (antibody)
chain 1: not shown
chain 2: not shown

One experiment deals with T1, extracellular region of human V158 FcγRIIIa with C-terminal 6xHis-tag and GST-tag (human, UniProt P08637 17-208). Nature of the experiment: SPR, fold vs WT alemtuzumab.
B1: the “Fold WT” value amounted to 1.38 fold.

For the molecule B2, the “Fold WT” value stood at 1.51 fold.

With B3, the “Fold WT” value was determined as 12.8 fold.

As to B4, the “Fold WT” value was 1.86 fold.

For B5, the “Fold WT” value was 2.31 fold.

In a further experiment the target is T1, extracellular region of human V158 …. Nature of the experiment: AlphaScreen competition. (Bead proximity is the source of the signal in Alpha formats.)
B6 yielded an IC50 of 0.8 nM.

The next experiment has the same target. Nature of the experiment: AlphaScreen competition. This is another data set of the same source.
As to B7, the “affinity as a fraction of glycosylated WT alemtuzumab” value was 0.4 fold.

Regarding B8, the “affinity as a fraction of glycosylated WT alemtuzumab” value is 0.8 fold.

Another experiment addresses extracellular region of human F158 FcγRIIIa with C-terminal 6xHis-tag and GST-tag (human, UniProt P08637 17-208). Nature of the experiment: SPR, receptor on chip. A general note: Surface plasmon resonance follows binding to a sensor surface in real time, without labels.
B9 had a Kd of 52 nM.

B10 returned a Kd of 285 nM.

For the molecule B11, the equilibrium dissociation constant (Kd) amounted to 72 nM.

B12 came in with a Kd of 730 nM. Against the preceding molecule, the Kd is about 10-fold higher.

Molecule B13 yielded a Kd of 156 nM.

The target in another experiment is T1, extracellular region of human V158 …. Nature of the experiment: SPR, receptor on chip.
For B14, binding was put at a Kd of 64 nM.

As for B9, the Kd worked out at 17 nM.

Molecule B10 showed a Kd of 52 nM.

In the case of B11, binding was put at a Kd of 31 nM.

Turning to B12, the Kd was found to be 68 nM. Against the preceding molecule, the Kd is about 2.2-fold higher.

On to B13, for which binding was characterised by a dissociation constant (Kd) of 39 nM.

For a further experiment the target is unchanged. Nature of the experiment: AlphaScreen competition. This is another data set of the same source.
Turning to B9, the IC50 amounted to 0.5 nM.

The next experiment shares this target. As to the kind of experiment: AlphaScreen competition, fold vs WT alemtuzumab.
In the case of B4, the “Fold WT” value stood at 1 fold.
